Measured values as given in patent publication US20060223099A1 (BAYLOR COLLEGE OF MEDICINE, published 2006).

Molecular target: T1, SV40 large T-antigen (SV40, UniProt P03070 87-708)
T1 construct: Control partner in the yeast-two-hybrid assay; fusion construct not described
Assay: targeted yeast-two-hybrid, negative control

T1 sequence (P03070 87-708 limits assumed): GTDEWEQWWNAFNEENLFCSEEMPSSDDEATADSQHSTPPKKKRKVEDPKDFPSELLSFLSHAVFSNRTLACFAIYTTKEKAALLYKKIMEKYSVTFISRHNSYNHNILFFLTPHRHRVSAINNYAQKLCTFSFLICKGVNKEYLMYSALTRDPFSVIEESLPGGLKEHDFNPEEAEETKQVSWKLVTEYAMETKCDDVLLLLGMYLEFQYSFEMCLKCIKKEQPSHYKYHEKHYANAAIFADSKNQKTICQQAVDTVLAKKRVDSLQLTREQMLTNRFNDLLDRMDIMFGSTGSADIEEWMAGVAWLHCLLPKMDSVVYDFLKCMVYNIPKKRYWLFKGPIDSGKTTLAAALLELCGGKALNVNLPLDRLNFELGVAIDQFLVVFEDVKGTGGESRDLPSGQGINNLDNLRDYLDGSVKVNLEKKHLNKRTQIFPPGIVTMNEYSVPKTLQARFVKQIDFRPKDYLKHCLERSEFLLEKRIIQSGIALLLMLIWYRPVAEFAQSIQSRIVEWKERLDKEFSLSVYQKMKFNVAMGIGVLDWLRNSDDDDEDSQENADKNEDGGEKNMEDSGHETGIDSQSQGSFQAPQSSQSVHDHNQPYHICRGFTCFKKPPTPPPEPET

B1: human Lamin C (other)
chain: SEEVVSREVSGIKAAYEAELGDARKTLDSVAKERARLQLELSKVREEFKELKARNTKKEGDLIAAQARLKDLEALLNSKEAALSTALSEKRTLEGELHDLRGQVAKLEAALGEAKKQLQDEMLRRVDAENRLQTMKEELDFQKNIYSEELRETKRRHETRLVEID
notes: Negative-control partner in the yeast-two-hybrid assay; fusion construct not described
B1: no binding.
